Data as given in patent US20220249628.

Biological target: full length recombinant von Willebrand factor, P04275

B1: recombinant ADAMTS13 (A Disintegrin And Metalloproteinase with Thrombospondin type 1 motif, member-13) (protein)
chain: AAGGILHLELLVAVGPDVFQAHQEDTERYVLTNLNIGAELLRDPSLGAQFRVHLVKMVILTEPEGAPNITANLTSSLLSVCGWSQTINPEDDTDPGHADLVLYITRFDLELPDGNRQVRGVTQLGGACSPTWSCLITEDTGFDLGVTIAHEIGHSFGLEHDGAPGSGCGPSGHVMASDGAAPRAGLAWSPCSRRQLLSLLSAGRARCVWDPPRPQPGSAGHPPDAQPGLYYSANEQCRVAFGPKAVACTFAREHLDMCQALSCHTDPLDQSSCSRLLVPLLDGTECGVEKWCSKGRCRSLVELTPIAAVHGRWSSWGPRSPCSRSCGGGVVTRRRQCNNPRPAFGGRACVGADLQAEMCNTQACEKTQLEFMSQQCARTDGQPLRSSPGGASFYHWGAAVPHSQGDALCRHMCRAIGESFIMKRGDSFLDGTRCMPSGPREDGTLSLCVSGSCRTFGCDGRMDSQQVWDRCQVCGGDNSTCSPRKGSFTAGRAREYVTFLTVTPNLTSVYIANHRPLFTHLAVRIGGRYVVAGKMSISPNTTYPSLLEDGRVEYRVALTEDRLPRLEEIRIWGPLQEDADIQVYRRYGEEYGNLTRPDITFTYFQPKPRQAWVWAAVRGPCSVSCGAGLRWVNYSCLDQARKELVETVQCQGSQQPPAWPEACVLEPCPPYWAVGDFGPCSASCGGGLRERPVRCVEAQGSLLKTLPPARCRAGAQQPAVALETCNPQPCPARWEVSEPSSCTSAGGAGLALENETCVPGADGLEAPVTEGPGSVDEKLPAPEPCVGMSCPPGWGHLDATSAGEKAPSPWGSIRTGAQAAHVWTPAAGSCSVSCGRGLMELRFLCMDSALRVPVQEELCGLASKPGSRREVCQAVPCPARWQYKLAACSVSCGRGVVRRILYCARAHGEDDGEEILLDTQCQGLPRPEPQEACSLEPCPPRWKVMSLGPCSASCGLGTARRSVACVQLDQGQDVEVDEAACAALVRPEASVPCLIADCTYRWHVGTWMECSVSCGDGIQRRRDTCLGPQAQAPVPADFCQHLPKPVTVRGCWAGPCVGQGTPSLVPHEEAAAPGRTTATPAGASLEWSQARGLLFSPAPQPRRLLPGPQENSVQSSACGRQHLEPTGTIDMRGPGQADCAVAIGRPLGEVVTLRVLESSLNCSAGDMLLLWGRLTWRKMCRKLLDMTFSSKTNTLVVRQRCGRPGGGVLLRYGSQLAPETFYRECDMQLFGPWGEIVSPSLSPATSNAGGCRLFINVAPHARIAIHALATNMGAGTEGANASYILIRDTHSLRTTAFHGQQVLYWESESSQAEMEFSEGFLKAQASLRGQYWTLQSWVPEMQDPQSWKGKEGT
  176 kDa dimeric VWF cleavage fragment (VWF immunoblot, vortex-based assay, no hemoglobin): Control reactions with 0.25 U/mL, 0.5 U/mL, and 1 U/mL rADAMTS13 in absence of hemoglobin showed a dose-dependent increase of the 176 kDa dimeric VWF cleavage fragment
  ADAMTS13-mediated VWF cleavage in the presence of hemoglobin (176 kDa fragment, densitometry): rADAMTS13 has a dose-dependent potency to overcome the inhibitory effect of hemoglobin on VWF cleavage
  cleavage of rVWF after pre-incubation of hemoglobin and rVWF (176 kDa fragment, densitometry): rADAMTS13 supplemented after a pre-incubation time of hemoglobin and rVWF was capable to cleave VWF
